According to the supplement of paper PMC9170038:

Tested on: K4 kissing-loop RNA reporter
Assay: apparent KD of K4 kissing-loop reporter; higher = weaker reporter binding
Details: Eterna round: R107
Protocol: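 RNA-MaP round R107: designed RNA switches with theophylline, tryptophan, arginine or FMN aptamers are transcribed on-chip within common flanks. They are titrated with a labelled K4 kissing-loop RNA reporter in RNA-MaP buffer (100 mM Tris pH 7.5, 80 mM KCl, 4 mM MgCl2), without ligand or with the indicated ligand. Median apparent KD per design.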

[1] = input ligand: theophylline 20 uM
[2] = input ligand: tryptophan 2.4 mM
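Also: bound reporter read as fluorescence of individual clusters on recovered sequencing chips by microscopy, with normalized cluster intensities fitted with a binding model.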

| Sequence | apparent KD of K4 kissing-loop reporter (input ligand: FMN 200 uM) | apparent KD of K4 kissing-loop reporter (input ligand: arginine 13.2 mM) | apparent KD of K4 kissing-loop reporter (input ligand: none) | apparent KD of K4 kissing-loop reporter [1] | apparent KD of K4 kissing-loop reporter [2] |
| --- | --- | --- | --- | --- | --- |
| AUCUAUGAGCGAGGAUAUGCAUAACGCGAGUGAUGUUCGCGAUGUGGGCGUAAUUGAUAAAAUGAAGCAGAAGGCGCACUCAUGA [Exclusion - FMW B / B] | 165 nM | 115 nM | 177 nM | 155 nM | 120 nM |
| AUGCCUAUGACGGCCGCCACUGAGAGUCAGUGAUGUUGACUCGAUACAGCUGAUUAGCAGCUAAUCAGGACCGGGUCAUACACAU [Tryp B SS t3] | 243 nM | 158 nM | 244 nM | 245 nM | 123 nM |
| AUGCGUGAUGCUCAAAGAGUAUCACCCGAUACCAGUAUGGAAACAUACCCUUGGCAGCGGGUAACUGCCCAGUGAUGUUGGACGC [Theophylline A K4 10] | 286 nM | 160 nM | 242 nM | 288 nM | 234 nM |
| AUGCUGUCGGCGUUAAAGUAGUAAUGUGAUACCAGAAAUGCUGUGUUCCCUUGGCAGCACAUUCUUACAGACAGUGAUGUUGUCU [theeternabot_exclusion_KL_Theo_A_8] | 414 nM | 315 nM | 391 nM | 390 nM | 336 nM |
| AUGGUUGUCGUAGGAUAUGUAGGAUAUUCUAAAAUAUGAAGUGAUGUUUCUAUAAUAAGAAGAAGGACAGAAGGACGAUAACCAC [FmnBS 1 - SaraBot transfer #DoubleAptamer] | 90.4 nM | 104 nM | 114 nM | 89.3 nM | 108 nM |
| AUGUACAUUCUCAGUGAUGUUGGGUUGUAACGAGGACCGGUACGGCCGCCACUCGGGAUGUGGUAUAUAGAUGUAUGUGUAGCAU [skye_SS_TA] | 612 nM | 271 nM | 446 nM | 512 nM | 439 nM |
| AUGUCUUAUAAACUCAUGGUUUCGACAGAUACCAGCUUCGAGAGGAGCCCUUGGCAGCUGCAUGAGUGAUGUUCAUGUACGAAGA [KL-XTheoA6] | 370 nM | 336 nM | 516 nM | 315 nM | 301 nM |
| AUUAAUAACAGAGGAUAUGCAUUAUUAUUAUUUUUAAAUAAUAAAUGCAGUGAUGUUGCAUAUUAAGCAGAAGGCUGAUUUAUUU [JR_SSFMNB_Sub011] | 137 nM | 516 nM | 484 nM | 439 nM | 353 nM |
| AUUAUAAAGACGGCCGCCACUGAGAGUAGUGAUGUUACUCUUUUCCUUUAGAUAUUAUAUUUUAUCAGGACCGGGUUUUUUGAUU [JR_Nu_ExcTryptoB_Sub025] | 97.3 nM | 86.7 nM | 90.3 nM | 88.1 nM | 91.9 nM |
| AUUAUAAAGUCGGCCGCCACUGAGAGUAGUGAUGUUACUCUAUUCCUUUAGAUAUUAUAUUUUAUCAGGACCGGGACAUCAGAUU [JR_ExcTryptoB_Sub019] | 332 nM | 341 nM | 317 nM | 290 nM | 228 nM |
| AUUAUAAAGUCGGCCGCCACUGAGAGUAGUGAUGUUACUCUUUUCCUUUAGAUAUUAUAUUUUAUCAGGACCGGGACAUCAGAUU [JR_ExcTryptoB_Sub020] | 198 nM | 170 nM | 208 nM | 180 nM | 162 nM |
| AUUCGUUUAUGUGAUACCAGACUUUGCAGUGAUGUUGCAUUAAUUAAAGAUGUUUAGUUUGUCCCUUGGCAGCACUAUUUAUUUA [JR_SSTheophyB_Sub002] | 43.1 nM | 84.4 nM | 49.6 nM | 83.3 nM | 38.9 nM |
| AUUCGUUUAUGUGAUACCAGACUUUGCAGUGAUGUUGCAUUAAUUAUUGAUGAUUAGUUUGUCCCUUGGCAGCACUAUUUAUUUA [JR_SSTheophyB_Sub003] | 54.6 nM | 105 nM | 63.8 nM | 104 nM | 47.7 nM |
| AUUCUGUUUUUGAUGUUUAUUGUAUAAUGGCAGGAUAUCGUAGAAGCGAGAAGGGCUUUUAUGCGUUAUGAGUGAUGUUUGUAGG [eyeefvmullin] | 373 nM | 260 nM | 284 nM | 319 nM | 256 nM |
| AUUCUUUUUUUGAUGUUUUUUGUAUAAUGGCAGGAUAUCGUAGAAGCGAGAAGGGCUUUUAUGCGUUAUGAGUGAUGUUUGUAGG [szeewvmullin] | 254 nM | 262 nM | 261 nM | 340 nM | 205 nM |
| AUUUAUGUUUCGGCCGCCACUCCACGUACUCAGAGAGAGUGAUGUUCUUUUUAUUAACGUCUAUGGAGGACCGGGAAGAGGUGAG [theeternabot_exclusion_KL_Trp_B_37] | 672 nM | 640 nM | 930 nM | 931 nM | 536 nM |
| AUUUGUUUAUGUGAUACCAGACUUUGCAGUGAUGUUGCUUUUAUUUUUGAAUUUUAAAUAGUCCCUUGGCAGCACUAUGUAUUUA [JR_SSTheophyB_Sub009] | 65.5 nM | 132 nM | 82.8 nM | 137 nM | 60.6 nM |
| AUUUUGGUUUAGAGUGAUGUUCCUUGUGUUCGAGGACCGGUACGGCCGCCACUCGGGUAGAAAAGAAAAGAAAUGUUUGAUUUUU [BDazzled - #10 SS Tryptophan A] | 251 nM | 105 nM | 548 nM | 92.8 nM | 123 nM |
| CAGACAUGCGGUAGGUUCAAGCGCUGGGAAGGAGCGCAGAUGACUGCAGGUAGGUCGCCCAGUGAUGUUGGGCUUUCCACCUAUG [Onbeenbi] | 110 nM | 122 nM | 120 nM | 150 nM | 107 nM |
| CAUAAAAGGUGGAAGACGAAUCGGUGUCGCCGAGGACCGGUACGGCCGCCACUCGGUCAUCAAAUCCUUCCCGAGUGAUGUUCGA [theeternabot_sameState_KL_Trp_A_5] | 382 nM | 439 nM | 501 nM | 444 nM | 258 nM |
| CAUACCCAGUGAUGUUGGGUCGGUACCGAUACCAGUCGUACAGCCGACCCUUGGCAGCGGUAGCAUUGCCCGGCGUCGGCUUGUG [theeternabot_exclusion_KL_Theo_A_17] | 767 nM | 581 nM | 625 nM | 445 nM | 381 nM |

| Sequence | apparent KD of K4 kissing-loop reporter (input ligand: FMN 200 uM) | apparent KD of K4 kissing-loop reporter (input ligand: arginine 13.2 mM) | apparent KD of K4 kissing-loop reporter (input ligand: none) | apparent KD of K4 kissing-loop reporter [1] | apparent KD of K4 kissing-loop reporter [2] |
| --- | --- | --- | --- | --- | --- |
| CAUACGCAUGGAGGAUAUGAGAUUACUCAUAUCAUUUAAUAUUCUCAGUGAUGUUGAGAUUUAGACUCAGAAGGCCAUGUGUAUG [Ex FMN B 13] | 302 nM | 310 nM | 350 nM | 357 nM | 317 nM |
| CAUACGCAUGGAGGAUAUGAGAUUUCUCAUAUUAUUUAAUAUUCUCAGUGAUGUUGAGAAUUAAACUCAGAAGGCCAUGUGUAUG [Ex FMN B 4] | 296 nM | 149 nM | 164 nM | 181 nM | 163 nM |
| CAUAUAUAUAGAGGAUAUCGAGUAGAGUGAUGUUCUGCCUGGGUUGGCUCGCAAGGGCCUUCCCAGCGAGAAGGCUAUAUAUAUG [harrys-mod#1ED5.33] | 225 nM | 399 nM | 502 nM | 431 nM | 482 nM |
| CAUCACGCAAUCACGGAUGCAAGCAUUGAUACCAGAACCGAUUAUUUCCCUUGGCAGCAACACGGAGUGAUGUUCCUAGCAUAUA [theeternabot_sameState_KL_Theo_A_21] | 71.2 nM | 122 nM | 94 nM | 209 nM | 75.5 nM |
| CCAAUCAGUUACGAUACCAGUCUAAUAUAUUUGAUCAAAACCCUCGCCGAGUGAUGUUCGGACCCUUGGCAGCGUCUGGGACAGG [fcctmullin] | 502 nM | 417 nM | 446 nM | 474 nM | 394 nM |
| CCAUCGCUAUUCGAUACCAGCCAAGAGGUCUUUGGCCUCUUAAUGGAGUGAUGUUCCAUUGGCCCUUGGCAGCGAAUAGUGAUGG [Theophylline B K4 18] | 771 nM | 489 nM | 723 nM | 823 nM | 798 nM |
| CCAUCGCUAUUCGAUACCAGCUACUUAGUGAUGUUAAGUUAAAAUAAAUUGUAGAUUAAAAGCCCUUGGCAGCGAAUAGUGAUGG [Theophylline B K4 19] | 149 nM | 134 nM | 150 nM | 103 nM | 136 nM |
| CCAUCGCUAUUCGAUACCAGCUCCUUAGUGAUGUUAAGGUUUUACGCUCUGUAGGAGCGAAGCCCUUGGCAGCGAGUAGUGAUGG [#04 K4 Theophylline B Same State] | 1120 nM | 832 nM | 1060 nM | 716 nM | 1110 nM |
| CCGGGCGGCCGAAGGAGCGGGCGGGCCCGAGUGAUGUUCGGGUGGACCGUGAGGUCCGGUGCCCAGGUAGGUCGCGGUUCCGCCC [#2 Same State - Arginine B Attempt #7 (HarryS)] | 156 nM | 123 nM | 157 nM | 115 nM | 134 nM |
| CCUAUCUCAUACGAUACCAGUCAAUGAUAUUUUAUCAAUGCCAUCACCGAGUGAUGUUCGGACCCUUGGCAGCGUAUGGGAUAGG [whbob_Ex_Theo_B_sa101] | 266 nM | 212 nM | 253 nM | 417 nM | 238 nM |
| CCUAUCUCAUACGAUACCAGUCAAUUAAAACGAGUGAUGUUCGAAAAUUUGCCAUAUAAUGACCCUUGGCAGCGUAUGGGAUAGG [Ex Theophylline B K4 7] | 187 nM | 196 nM | 194 nM | 197 nM | 164 nM |
| CCUAUCUCAUACGAUACCAGUCUACGAUAUUUUAUCGUUGCCAUCACCGAGUGAUGUUCGGACCCUUGGCAGCGUAUGGGAUAGG [Ex Theophylline B K4 5] | 340 nM | 277 nM | 355 nM | 544 nM | 346 nM |
| CCUAUCUCAUACGAUACCAGUGAAAUAAUAUUUAUAAGCAGUGAUGUUGCAUUCCAAGAACACCCUUGGCAGCGUAUGGGAUAGG [Ex Theophylline B K4 19] | 168 nM | 187 nM | 178 nM | 189 nM | 143 nM |
| CCUGCGGCUUCCGGCGGGCCCGAUUUAUAAAAGGAUAUGUGCGUACACAGAAGGUUUAACGAGGGACCGAGAGUGAUGUUCUCCU [theeternabot_sameState_KL_FMN_A_33] | 585 nM | 174 nM | 316 nM | 370 nM | 418 nM |
| CGAAGAUUCCAUGAUACCAGCCUCGGCCCAUAGAGUGAUGUUCUAGUCGGGUCCGUUCGCGGCCCUUGGCAGCAUUUCACCACGA [theeternabot_sameState_KL_Theo_B_44] | 197 nM | 172 nM | 178 nM | 216 nM | 159 nM |
| CGAGUACAUUGCGAUACCAGCGAUAGCAGUUCAACGCGCAGUCCGUUUAGUGAUGUUAGACGCCCUUGGCAGCGCUUCCUGGCAA [theeternabot_exclusion_KL_Theo_B_44] | 519 nM | 324 nM | 460 nM | 520 nM | 393 nM |
| CGAGUGAUGUUCGUUCGUUUAUUUCGGUGACAGGAUAUGCGGAAACGCAGAAGGGUCACCUUUGAGUUACCGGAAUUAACGUUAU [Ex FMN A 29] | 564 nM | 453 nM | 623 nM | 558 nM | 455 nM |
| CGAGUGAUGUUCGUUUUUUAAUUUUUUUGACAGGAUAUGCGGAAACGCAGAAGGGUCACCUUUGAGUUAAAAGAAUUUAUUUUUU [Ex FMN A 17] | 321 nM | 236 nM | 295 nM | 298 nM | 199 nM |
| CGAUAUAAGAAUAUAUAUCUCUAUUCAGAAGGAGCGUGUUUGUACACAGGUAGGUCGCUGAAAUUUAAACUAGUGAUGUUAGACU [JR_SSArginiA_Sub002] | 1170 nM | 878 nM | 1210 nM | 1000 nM | 890 nM |
| CGCAGUGAUGUUGCGAGUAACUACAGGGAAGGAGCGCGGUAGUCCGCAGGUAGGUCGCCCACGCAGUGAUGUUGCGUCAUAGGGU [Exclusion Arg A GF7] | 110 nM | 109 nM | 104 nM | 118 nM | 97.3 nM |
| CGCAGUGAUGUUGCGAGUUCAUUCAGGGAAGGAGCGCCACAGAUGGCAGGUAGGUCGCCCACGCAGUGAUGUUGUGUAUUCGGGU [Exclusion Arginine A GF 2] | 202 nM | 153 nM | 165 nM | 170 nM | 137 nM |
